Results from patent publication US20220218785A1 (ALPINE IMMUNE SCIENCES, published 2022).

Key:
[1] = target: T1, ICOS on CHO cells expressing ICOS (UniProt Q9Y6W8 21-199, limits assumed); assay: competition, flow cytometry: competitor labelled ICOSL on CHO cells expressing ICOS
T1 construct: whole, on cells
T1 sequence (looked up): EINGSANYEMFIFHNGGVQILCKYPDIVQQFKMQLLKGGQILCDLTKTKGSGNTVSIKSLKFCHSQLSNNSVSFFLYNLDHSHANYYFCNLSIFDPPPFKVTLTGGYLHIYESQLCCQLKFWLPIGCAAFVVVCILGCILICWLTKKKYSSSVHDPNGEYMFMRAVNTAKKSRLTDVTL

[2] = target: T2, CD28 on CHO cells expressing CD28 (UniProt P10747 19-220, limits assumed); assay: competition, flow cytometry: competitor CD80 on CHO cells expressing CD28
T2 construct: whole, on cells

human ICOS = target: T3, human ICOS (human, UniProt Q9Y6W8 21-199); assay: flow cytometry, transfected HEK293 cells
T3 construct: whole, on cells
T3 sequence (looked up): T1 sequence (looked up)
Description: (§1) Binding was assessed substantially as described in Example 1 on transfected HEK293 cells generated to express the full-length surface ligands CD28, ICOS or CTLA-4 from human, cynomolgus monkey, rat or mouse. Transfection was carried out using a transient transfection system (Life Technologies, USA). As a control, binding to mock (non-transfected) cells also was assessed.

rat CD28 = target: T4, rat CD28 (rat, UniProt P31042 20-218); assay: flow cytometry, transfected HEK293 cells
T4 construct: whole, on cells
Description: as §1

rat CTLA-4 = rat CTLA-4 (rat, UniProt Q62859 36-223); assay: flow cytometry, transfected HEK293 cells
Description: as §1

cynomolgus monkey CTLA-4 = target: T5, cynomolgus monkey CTLA-4 (cynomolgus monkey, UniProt G7PL88 36-223); assay: flow cytometry, transfected HEK293 cells
T5 construct: whole, on cells
Description: as §1

human CD28 = target: T6, human CD28 (human, UniProt P10747 19-220); assay: flow cytometry, transfected HEK293 cells
T6 construct: whole, on cells
Description: as §1

mouse ICOS = target: T7, mouse ICOS (mouse, UniProt Q9WVS0 21-200); assay: flow cytometry, transfected HEK293 cells
T7 construct: whole, on cells
T7 sequence (looked up): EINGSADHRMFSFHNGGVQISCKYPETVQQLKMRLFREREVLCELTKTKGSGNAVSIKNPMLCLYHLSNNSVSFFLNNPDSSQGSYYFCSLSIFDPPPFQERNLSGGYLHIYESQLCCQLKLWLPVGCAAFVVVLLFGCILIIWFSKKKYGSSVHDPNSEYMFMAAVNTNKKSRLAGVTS
Description: as §1

cynomolgus monkey ICOS = target: T8, cynomolgus monkey ICOS (cynomolgus monkey, UniProt A0A2K5TQR6 21-168); assay: flow cytometry, transfected HEK293 cells
T8 sequence: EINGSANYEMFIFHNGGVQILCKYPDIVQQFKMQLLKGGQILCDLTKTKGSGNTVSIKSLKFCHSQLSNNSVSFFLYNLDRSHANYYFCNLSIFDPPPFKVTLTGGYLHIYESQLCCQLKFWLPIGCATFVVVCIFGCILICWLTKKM
Description: as §1

human CTLA-4 = target: T9, human CTLA-4 (human, UniProt P16410 36-223); assay: flow cytometry, transfected HEK293 cells
T9 construct: whole, on cells
Description: as §1

cynomolgus monkey CD28 = target: T10, cynomolgus monkey CD28 (cynomolgus monkey, UniProt Q0PDN3 19-220); assay: flow cytometry, transfected HEK293 cells
T10 construct: whole, on cells
Description: as §1

rat ICOS = target: T11, rat ICOS (rat, UniProt Q9R1T7 21-200); assay: flow cytometry, transfected HEK293 cells
T11 construct: whole, on cells
T11 sequence (looked up): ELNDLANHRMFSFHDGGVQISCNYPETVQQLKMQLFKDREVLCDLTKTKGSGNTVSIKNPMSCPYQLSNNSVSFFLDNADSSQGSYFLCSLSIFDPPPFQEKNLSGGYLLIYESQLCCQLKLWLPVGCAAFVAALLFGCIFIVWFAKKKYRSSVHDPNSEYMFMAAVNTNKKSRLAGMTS
Description: as §1

mouse CD28 = target: T12, mouse CD28 (mouse, UniProt P31041 20-218); assay: flow cytometry, transfected HEK293 cells
T12 construct: whole, on cells
Description: as §1

mouse CTLA-4 = target: T13, mouse CTLA-4 (mouse, UniProt P09793 36-223); assay: flow cytometry, transfected HEK293 cells
T13 construct: whole, on cells
Description: as §1

[3] = target: T1, ICOS on CHO cells expressing ICOS; assay: flow cytometry on CHO cells expressing ICOS, bound protein detected with anti-human IgG-PE, median fluorescence against [pM]
[4] = target: T2, CD28 on CHO cells expressing CD28; assay: competition, flow cytometry: competitor labelled CD86 on CHO cells expressing CD28
[5] = target: T2, CD28 on CHO cells expressing CD28; assay: flow cytometry on CHO cells expressing CD28, bound protein detected with anti-human IgG-PE, median fluorescence against [pM]
[6] = target: T14, human ICOS, full-length, on transfected cells (human, UniProt Q9Y6W8 21-199); assay: flow cytometry on CHO cells expressing ICOS, anti-human IgG-PE
T14 construct: whole, on cells; also called ICOS tfxn
T14 sequence (looked up): T1 sequence (looked up)

[7] = target: T15, mouse CD28, full-length, on transfected HEK293 cells (mouse, UniProt P31041 20-218); assay: flow cytometry on transfected HEK293 cells
T15 construct: whole, on cells
Description: (§2) Binding studies were carried out on transfected HEK293 cells generated to express the full-length mammalian (human) surface ligands, CD28, ICOS or CTLA-4, using a transient transfection system (Life Technologies, USA). As a control, binding to mock (non-transfected) cells also was assessed. For staining by flow cytometry, 200,000 cells of appropriate transient transfection or negative control (mock) were plated in 96 well round bottom plates, and, then incubated in staining buffer (PBS, phosphate buffered saline; 1% BSA, bovine serum albumin; and 0.1% sodium azide) for 20 minutes to block non-specific binding. Cells were resuspended in staining buffer containing 100 nM to 1 nM variant immunomodulatory protein in 50 μL. Mean Fluorescence Intensity (MFI) was calculated for each transfectant and negative parental line with Cell Quest Pro software (Becton Dickinson, USA) or a Hypercyt flow cytometer (Intellicyte, USA).
as §1

[8] = target: T16, mouse CTLA-4, full-length, on transfected HEK293 cells (mouse, UniProt P09793 36-223); assay: flow cytometry on transfected HEK293 cells
T16 construct: whole, on cells
Description: as §2, §1

[9] = target: T17, mouse ICOS, full-length, on transfected HEK293 cells (mouse, UniProt Q9WVS0 21-200); assay: flow cytometry on transfected HEK293 cells
T17 construct: whole, on cells
T17 sequence (looked up): T7 sequence (looked up)
Description: as §2, §1

[10] = target: T18, human CTLA-4, full-length, on transfected cells (human, UniProt P16410 36-223); assay: flow cytometry on transfected HEK293 cells
T18 construct: whole, on cells; also called CTLA-4 tfxn
Description: as §2, §1

[11] = target: T19, rat CD28, full-length, on transfected HEK293 cells (rat, UniProt P31042 20-218); assay: flow cytometry on transfected HEK293 cells
T19 construct: whole, on cells
Description: as §2, §1

[12] = target: T20, rat ICOS, full-length, on transfected HEK293 cells (rat, UniProt Q9R1T7 21-200); assay: flow cytometry on transfected HEK293 cells
T20 construct: whole, on cells
T20 sequence (looked up): T11 sequence (looked up)
Description: as §2, §1

[13] = target: T21, human CD28, full-length, on transfected cells (human, UniProt P10747 19-220); assay: flow cytometry on CHO cells expressing CD28, anti-human IgG-PE
T21 construct: whole, on cells; also called CD28 tfxn

[14] = target: CD28 receptor loaded onto anti-human capture sensor (ForteBio Octet AHC) (UniProt P10747 19-152); assay: ForteBio Octet BLI, receptor on AHC sensor
Description: (§3) Each titration was globally fit to calculate the association (kₒₙ) and dissociation (Kdis) of each protein. […] The dissociation constant (KD) was calculated and compared to wildtype to determine a fold improvement value (fold imp.).

[15] = target: CTLA-4 receptor loaded onto anti-human capture sensor (ForteBio Octet AHC) (UniProt P16410 37-162, limits assumed); assay: ForteBio Octet BLI, receptor on AHC sensor
Description: as §3

[16] = target: T22, ICOS receptor loaded onto anti-human capture sensor (ForteBio Octet AHC) (UniProt Q9Y6W8 21-141, limits assumed); assay: ForteBio Octet BLI, receptor on AHC sensor
T22 sequence (looked up): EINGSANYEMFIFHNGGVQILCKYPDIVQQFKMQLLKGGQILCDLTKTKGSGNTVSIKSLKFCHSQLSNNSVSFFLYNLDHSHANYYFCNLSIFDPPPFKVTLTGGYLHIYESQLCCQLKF
Description: as §3

[17] = target: T23, ICOSL labeled with AlexaFluor-647 (UniProt O75144 19-256, limits assumed, labeled with AlexaFluor-647); assay: competition, flow cytometry: labelled ICOSL on CHO cells expressing ICOS
T23 sequence (looked up): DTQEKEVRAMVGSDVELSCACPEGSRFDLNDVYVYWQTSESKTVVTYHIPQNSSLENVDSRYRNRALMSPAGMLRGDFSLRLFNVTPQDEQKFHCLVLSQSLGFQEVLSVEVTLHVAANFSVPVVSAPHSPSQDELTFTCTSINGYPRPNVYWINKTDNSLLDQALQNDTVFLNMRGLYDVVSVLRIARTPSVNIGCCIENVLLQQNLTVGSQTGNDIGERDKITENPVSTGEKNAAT

B1: variant ICOSL IgV-Fc (variant ICOSL IgV N52H/N57Y/Q100R, SEQ ID NO: 36, fused to an inert human IgG1 Fc, e.g. SEQ ID NO: 42) (Fc fusion)
chain: DTQEKEVRAMVGSDVELSCACPEGSRFDLNDVYVYWQTSESKTVVTYHIPQHSSLEYVDSRYRNRALMSPAGMLRGDFSLRLFNVTPQDEQKFHCLVLSRSLGFQEVLSVEVTLHVAANFSVEPKSSDKTHTCPPCPAPEAEGAPSVFLFPPKPKDTLMISRTPEVTCVVVDVSHEDPEVKFNWYVDGVEVHNAKTKPREEQYNSTYRVVSVLTVLHQDWLNGKEYKCKVSNKALPAPIEKTISKAKGQPREPQVYTLPPSRDELTKNQVSLTCLVKGFYPSDIAVEWESNGQPENNYKTTPPVLDSDGSFFLYSKLTVDKSRWQQGNVFSCSVMHEALHNHYTQKSLSLSPG
notes: also called variant ICOSL vIgD-Fc fusion molecule
IC50 [1]: 4.3 nM | IC50 [2]: 1 nM | EC50 (human ICOS): 0.633 nM | EC50 (rat CD28): 1.06 nM | EC50 (rat CTLA-4): 0.793 nM | EC50 (cynomolgus monkey CTLA-4): 0.704 nM | EC50 (human CD28): 0.648 nM | EC50 (mouse ICOS): 1.43 nM | EC50 (cynomolgus monkey ICOS): 0.579 nM | EC50 (human CTLA-4): 0.68 nM | EC50 (cynomolgus monkey CD28): 0.44 nM | EC50 (rat ICOS): 1.03 nM | EC50 (mouse CD28): 1.15 nM | EC50 (mouse CTLA-4): 1.11 nM | EC50 (read off the curve) [3]: ~3 nM | IC50 [4]: 0.7 nM | EC50 (read off the curve) [5]: ~3 nM

B2: variant ICOSL IgV-Fc (N52H/N57Y/Q100R) (Fc fusion)
chain: DTQEKEVRAMVGSDVELSCACPEGSRFDLNDVYVYWQTSESKTVVTYHIPQHSSLEYVDSRYRNRALMSPAGMLRGDFSLRLFNVTPQDEQKFHCLVLSRSLGFQEVLSVEVTLHVAANFSVGGGGSGGGGSEPKSSDKTHTCPPCPAPEAEGAPSVFLFPPKPKDTLMISRTPEVTCVVVDVSHEDPEVKFNWYVDGVEVHNAKTKPREEQYNSTYRVVSVLTVLHQDWLNGKEYKCKVSNKALPAPIEKTISKAKGQPREPQVYTLPPSRDELTKNQVSLTCLVKGFYPSDIAVEWESNGQPENNYKTTPPVLDSDGSFFLYSKLTVDKSRWQQGNVFSCSVMHEALHNHYTQKSLSLSPG
notes: also called variant ICOSL vIgD-Fc fusion molecule; ICOS-IgV Fc (N52H/N57Y/Q100R)
binding result [6]: binds | binding result [7]: binds | binding result [8]: binds | binding result [9]: binds | binding result [10]: binds | binding result [11]: binds | binding result [12]: binds | binding result [13]: binds

B3: wildtype PD-L2 ED-Fc fusion molecule (Fc fusion, UniProt Q9BQ51 20-220, looked up)
chain: LFTVTVPKELYIIEHGSNVTLECNFDTGSHVNLGAITASLQKVENDTSPHRERATLLEEQLPLGKASFHIPQVQVRDEGQYQCIIIYGVAWDYKYLTLKVKASYRKINTHILKVPETDEVELTCQATGYPLAEVSWPNVSVPANTSHSRTPEGLYQVTSVLRLKPPPGRNFSCVFWNTHVRELTLASIDLQSQMEPRTHPT
notes: extracellular domain; Control protein in the ForteBio assays; also called PD-L2-Fc; not shown: Fc part and any linker are not described
Response [14]: -0.04 | Response [15]: 0 | Response [16]: 0.03

B4: prezalumab (AMG-557; anti-ICOSL, Creative Biolabs) (antibody, V domains shown)
VH: EVQLVESGGGLVQPGGSLRLSCAASGFTFSSYWMSWVRQAPGKGLEWVAYIKQDGNEKYYVDSVKGRFTISRDNAKNSLYLQMNSLRAEDTAVYYCAREGILWFGDLPTFWGQGTLVTVSS
VL: DIQMTQSPSSLSASVGDRVTITCRASQGISNWLAWYQQKPEKAPKSLIYAASSLQSGVPSRFSGSGSGTDFTLTISSLQPEDFATYYCQQYDSYPRTFGQGTKVEIK
IC50 [17]: 23.3 nM
